For assay [1], the target named is T1, GST-CDF2 (Arabidopsis, UniProt Q93ZL5 1-457).
T1 construct: cycling DOF factor 2 (CDF2), Arabidopsis
T1 sequence (looked up): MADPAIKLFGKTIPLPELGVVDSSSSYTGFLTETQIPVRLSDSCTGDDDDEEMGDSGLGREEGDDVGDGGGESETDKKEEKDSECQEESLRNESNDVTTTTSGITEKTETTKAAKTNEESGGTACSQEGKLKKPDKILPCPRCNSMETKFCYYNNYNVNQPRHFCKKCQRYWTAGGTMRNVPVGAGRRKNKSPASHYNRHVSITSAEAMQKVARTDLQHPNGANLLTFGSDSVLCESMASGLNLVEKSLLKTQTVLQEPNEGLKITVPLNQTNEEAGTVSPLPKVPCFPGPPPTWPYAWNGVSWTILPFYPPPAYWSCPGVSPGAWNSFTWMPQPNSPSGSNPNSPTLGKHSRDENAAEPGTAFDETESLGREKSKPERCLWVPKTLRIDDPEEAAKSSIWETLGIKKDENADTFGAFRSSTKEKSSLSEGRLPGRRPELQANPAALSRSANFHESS
The experiment in a line: pull-down; GST pull-down: GST-CDF2 (or GST) on glutathione beads, MBP-DCL1-RBD added; 40 mM HEPES-KOH pH 7.5, 10 mM KCl, 3 mM MgCl2, 0.4 M sucrose, 1 mM EDTA, 1 mM DTT, 0.2% Triton X-100; 4 C, 1 h; immunoblot. The settings on record: both partners purified. In general terms: A western blot detects proteins with antibodies after separation by electrophoresis.

Assay [2] addresses T2, MBP-CDF2 (Arabidopsis, UniProt Q93ZL5 1-457).
T2 construct: cycling DOF factor 2 (CDF2), Arabidopsis; source: E. coli BL21 (DE3), purified (New England Biolabs protocol)
T2 sequence (looked up): T1 sequence (looked up)
The assay is described as follows: pull-down; MBP pull-down: MBP-CDF2 (or MBP) on amylose resin, GST-DCL1-RBD added; 40 mM HEPES-KOH pH 7.5, 10 mM KCl, 3 mM MgCl2, 0.4 M sucrose, 1 mM EDTA, 1 mM DTT, 0.2% Triton X-100; 4 C, 1 h; immunoblot. As to conditions: both partners purified.

B1: MBP-DCL1-RBD (domain or fragment, Arabidopsis, UniProt Q9SP32 1733-1909, looked up)
chain: HPVRELQERCQQQAEGLEYKASRSGNTATVEVFIDGVQVGVAQNPQKKMAQKLAARNALAALKEKEIAESKEKHINNGNAGEDQGENENGNKKNGHQPFTRQTLNDICLRKNWPMPSYRCVKEGGPAHAKRFTFGVRVNTSDRGWTDECIGEPMPSVKKAKDSAAVLLLELLNKTFS
notes: Dicer-like 1 (DCL1), Arabidopsis, the two C-terminal dsRBDs (DCL1-RBD, defined as aa 1733-1910); The limits are those printed where the name DCL1-RBD is defined; the methods of the pull-down give none; source: E. coli BL21 (DE3), purified (New England Biolabs protocol)
On to B1, for which, in assay [1], the binding result is “binds”.

B2: GST-DCL1-RBD (domain or fragment, Arabidopsis, UniProt Q9SP32 1733-1909, looked up)
chain: B1 chain
notes: Dicer-like 1 (DCL1), Arabidopsis, the two C-terminal dsRBDs (DCL1-RBD, defined as aa 1733-1910); The limits are those printed where the name DCL1-RBD is defined; the methods of the pull-down give none
As for B2, in assay [2], the binding result was “binds”.

Source of the values: publication PMC4608766, “The Roles of Arabidopsis CDF2 in Transcriptional and Posttranscriptional Regulation of Primary MicroRNAs” (PLoS Genetics, 2015).
